pKd: −log10 of the molar value.
Biological target: HLA-A*02:01
Assay: IEDB peptide-MHC binding, purified MHC/direct/fluorescence; filed as Kd, often an IC50 or EC50 that approximates it; ≥ and ≤ were set here for values at or beyond the usual limits of such assays
Details: source organism: Human immunodeficiency virus 1

Sequence	pKd
SLFNAVVTL	8.00
SLFNTVATV	7.60
SLFNTVVTL	7.49
SLYNAVATL	7.35
SLYNAVVTL	8.00
SLYNLVAVL	6.14
SLYNTIAIL	6.30
SLYNTISVL	7.21
SLYNTITVL	7.06
SLYNTVSTL	6.74
SLYNTVVTL	7.70
SVYNTVATL	6.55

— the Immune Epitope Database (IEDB)
